# FireProtDB (doi:10.1016/s0014-5793(98)01666-4)
# B1: Parvalbumin alpha, P02625 (parent)
# chain: MSMTDLLSAEDIKKAIGAFTAADSFDHKKFFQMVGLKKKSADDVKKVFHILDKDKSGFIEEDELGSILKGFSSDARDLSAKETKTLMAAGDKDGDGKIGVEEFSTLVAES
# Variants of: B1
# Settings: Rattus norvegicus; pH 7.4; Thermal; DSC; EDTA 10 mM; NaCl 0.20 M; transition: 2; reversible: yes; structure 1RTP; whole UniProt chain shown
Variant,Tm,unfolding enthalpy (calorimetric),unfolding enthalpy (van 't Hoff)
MSMTDLLSAEDIKKAIGAFTAADSFDHKKFFQMVGLKKKSADDVKKVFHILDKDKSGFIEEDELGSILKGFSSDARDLSAKETKTLMAAGDKDGDGKIGVEEFSTLVASS,41.8 °C,62 kcal/mol,63 kcal/mol
